Data set [1] has as its target T1, Oct4 POU (mouse, UniProt P20263). As to the kind of experiment: EMSA; 50 nM DNA, 25-800 nM protein; cooperative homodimer; EMSA buffer composition not given; 1 h at RT; gels in 1x TG, 200 V, 4 C; probes annealed in 20 mM Tris-HCl pH 8.0, 50 mM MgCl2, 50 mM KCl; protein stock 10 mM HEPES pH 7.0, 100 mM NaCl, 10% glycerol, 0.5 mM TCEP. The following applies: protein: recombinant; Methods: TEV-cleaved tag; label: 5' Cy5 on forward strand; blunt.

Data set [2] concerns the target T2, Oct4 POUHD (mouse, UniProt P20263). As to the kind of experiment: EMSA; 50 nM DNA; homodimer, minor effect of methylation; EMSA buffer composition not given; 1 h at RT; gels in 1x TG, 200 V, 4 C; probes annealed in 20 mM Tris-HCl pH 8.0, 50 mM MgCl2, 50 mM KCl; protein stock 10 mM HEPES pH 7.0, 100 mM NaCl, 10% glycerol, 0.5 mM TCEP. The following applies: protein: recombinant; tags: tag cleaved by TEV (leaves G); chain copies: 2; label: 5' Cy5 on forward strand; blunt. (In general: In EMSA bound probe runs differently from free probe, usually more slowly.)

The target of data set [3] is T3, Brn2 POUHD (mouse, UniProt P31360).
T3 sequence: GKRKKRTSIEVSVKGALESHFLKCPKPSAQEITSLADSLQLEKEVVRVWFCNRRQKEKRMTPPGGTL
As to the kind of experiment: EMSA; 50 nM DNA; dimer with strongly reduced cooperativity; EMSA buffer composition not given; 1 h at RT; gels in 1x TG, 200 V, 4 C; probes annealed in 20 mM Tris-HCl pH 8.0, 50 mM MgCl2, 50 mM KCl; protein stock 10 mM HEPES pH 7.0, 100 mM NaCl, 10% glycerol, 0.5 mM TCEP. The following applies: protein: recombinant, tags: tag cleaved by TEV (leaves G), blunt.

The target in data set [4] is T4, Brn2 POU (mouse, UniProt P31360).
T4 sequence: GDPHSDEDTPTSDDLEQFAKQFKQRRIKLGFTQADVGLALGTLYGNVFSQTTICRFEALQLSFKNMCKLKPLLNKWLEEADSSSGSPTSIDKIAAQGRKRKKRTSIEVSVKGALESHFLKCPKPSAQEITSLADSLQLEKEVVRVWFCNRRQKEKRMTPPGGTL
As to the kind of experiment: X-ray crystallography; 1.89 A; homodimer; 0.2 M MgCl2, pH 5.0; EMSA buffer composition not given; 1 h at RT; gels in 1x TG, 200 V, 4 C; probes annealed in 20 mM Tris-HCl pH 8.0, 50 mM MgCl2, 50 mM KCl; protein stock 10 mM HEPES pH 7.0, 100 mM NaCl, 10% glycerol, 0.5 mM TCEP. The conditions noted are these: protein: recombinant; tags: tag cleaved by TEV (leaves G); blunt; self-complementary strand, 2 copies.

In data set [5] the target is T4, Brn2 POU. As to the kind of experiment: EMSA; 1 nM DNA, 0.4-100 nM protein; nanomolar Kd, value only in figure; monomer; EMSA buffer composition not given; 1 h at RT; gels in 1x TG, 200 V, 4 C; probes annealed in 20 mM Tris-HCl pH 8.0, 50 mM MgCl2, 50 mM KCl; protein stock 10 mM HEPES pH 7.0, 100 mM NaCl, 10% glycerol, 0.5 mM TCEP. The following applies: protein: recombinant; tags: tag cleaved by TEV (leaves G); label: 5' Cy5 on forward strand; blunt.

In data set [6] the target is T1, Oct4 POU. As to the kind of experiment: EMSA; 1 nM DNA, 1-500 nM protein; nanomolar Kd, value only in figure; monomer; EMSA buffer composition not given; 1 h at RT; gels in 1x TG, 200 V, 4 C; probes annealed in 20 mM Tris-HCl pH 8.0, 50 mM MgCl2, 50 mM KCl; protein stock 10 mM HEPES pH 7.0, 100 mM NaCl, 10% glycerol, 0.5 mM TCEP. The following applies: protein: recombinant; Methods: TEV-cleaved tag; label: 5' Cy5 on forward strand; blunt.

The target of data set [7] is T2, Oct4 POUHD. As to the kind of experiment: EMSA; 50 nM DNA; high affinity, homodimer also forms; EMSA buffer composition not given; 1 h at RT; gels in 1x TG, 200 V, 4 C; probes annealed in 20 mM Tris-HCl pH 8.0, 50 mM MgCl2, 50 mM KCl; protein stock 10 mM HEPES pH 7.0, 100 mM NaCl, 10% glycerol, 0.5 mM TCEP. The conditions noted are these: protein: recombinant; tags: tag cleaved by TEV (leaves G); chain copies: 2; label: 5' Cy5 on forward strand; blunt.

For a further data set, the target named is T5, Brn2 POUS linker (mouse, UniProt P31360).
T5 sequence: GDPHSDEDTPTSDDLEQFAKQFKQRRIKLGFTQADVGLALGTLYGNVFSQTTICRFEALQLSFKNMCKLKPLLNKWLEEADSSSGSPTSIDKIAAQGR
As to the kind of experiment: EMSA; 50 nM DNA; EMSA buffer composition not given; 1 h at RT; gels in 1x TG, 200 V, 4 C; probes annealed in 20 mM Tris-HCl pH 8.0, 50 mM MgCl2, 50 mM KCl; protein stock 10 mM HEPES pH 7.0, 100 mM NaCl, 10% glycerol, 0.5 mM TCEP. The conditions noted are these: protein: recombinant; tags: tag cleaved by TEV (leaves G); label: 5' Cy5 on forward strand; blunt.

For data set [8], the target named is T3, Brn2 POUHD. As to the kind of experiment: EMSA; 50 nM DNA; high affinity, no dimer detectable; EMSA buffer composition not given; 1 h at RT; gels in 1x TG, 200 V, 4 C; probes annealed in 20 mM Tris-HCl pH 8.0, 50 mM MgCl2, 50 mM KCl; protein stock 10 mM HEPES pH 7.0, 100 mM NaCl, 10% glycerol, 0.5 mM TCEP. The conditions noted are these: protein: recombinant; tags: tag cleaved by TEV (leaves G); label: 5' Cy5 on forward strand; blunt.

Data set [9] concerns the target T2, Oct4 POUHD. As to the kind of experiment: EMSA; 50 nM DNA; homodimer more efficient than full POU; EMSA buffer composition not given; 1 h at RT; gels in 1x TG, 200 V, 4 C; probes annealed in 20 mM Tris-HCl pH 8.0, 50 mM MgCl2, 50 mM KCl; protein stock 10 mM HEPES pH 7.0, 100 mM NaCl, 10% glycerol, 0.5 mM TCEP. The conditions noted are these: protein: recombinant; tags: tag cleaved by TEV (leaves G); chain copies: 2; label: 5' Cy5 or FAM on forward strand; blunt.

Data set [10] addresses T1, Oct4 POU. As to the kind of experiment: EMSA (single-tube dual color); FAM-CpGpal with Cy5-MORE; dimerizes more effectively on CpGpal than Brn2 does; EMSA buffer composition not given; 1 h at RT; gels in 1x TG, 200 V, 4 C; probes annealed in 20 mM Tris-HCl pH 8.0, 50 mM MgCl2, 50 mM KCl; protein stock 10 mM HEPES pH 7.0, 100 mM NaCl, 10% glycerol, 0.5 mM TCEP. The following applies: protein: recombinant; Methods: TEV-cleaved tag; label: 5' Cy5 or FAM on forward strand; blunt.

Data set [11] deals with T1, Oct4 POU. As to the kind of experiment: EMSA; 50 nM DNA; homodimer, 5hmC no effect; EMSA buffer composition not given; 1 h at RT; gels in 1x TG, 200 V, 4 C; probes annealed in 20 mM Tris-HCl pH 8.0, 50 mM MgCl2, 50 mM KCl; protein stock 10 mM HEPES pH 7.0, 100 mM NaCl, 10% glycerol, 0.5 mM TCEP. The following applies: protein: recombinant; Methods: TEV-cleaved tag; label: 5' Cy5 on forward strand; blunt.

Data set [12] deals with T4, Brn2 POU. As to the kind of experiment: EMSA (single-tube dual color); Cy5-MORE with FAM-CpGpal; preferred, dimer; EMSA buffer composition not given; 1 h at RT; gels in 1x TG, 200 V, 4 C; probes annealed in 20 mM Tris-HCl pH 8.0, 50 mM MgCl2, 50 mM KCl; protein stock 10 mM HEPES pH 7.0, 100 mM NaCl, 10% glycerol, 0.5 mM TCEP. The conditions noted are these: protein: recombinant; tags: tag cleaved by TEV (leaves G); label: 5' Cy5 on one strand; blunt; self-complementary strand, 2 copies.

T1 sequence (P20263 other isoform, or with tags, fused parts or gaps): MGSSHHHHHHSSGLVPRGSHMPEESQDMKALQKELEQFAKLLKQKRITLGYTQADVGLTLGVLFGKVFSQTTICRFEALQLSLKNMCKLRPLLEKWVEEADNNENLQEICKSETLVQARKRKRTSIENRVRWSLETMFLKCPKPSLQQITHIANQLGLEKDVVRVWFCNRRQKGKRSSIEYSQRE
T2 sequence (P20263 other isoform, or with tags, fused parts or gaps): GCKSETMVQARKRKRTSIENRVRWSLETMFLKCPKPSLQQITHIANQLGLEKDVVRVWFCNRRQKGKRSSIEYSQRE

B1: CpGpal unmethylated (dsDNA)
DNA 1: GCCGCCTTATGCGCATAAGCCGCCGC
DNA 2: GCGGCGGCTTATGCGCATAAGGCGGC
With B1, the binding result in the data set with Oct4 POU [1], with Oct4 POUHD [2] and with Brn2 POUHD [3] (label: 5' Cy5 on forward strand) was “binds” in each case.

B2: MORE (crystal) (dsDNA)
DNA 1: TCCTCATGCATATGCATGAGGA
DNA 2: TCCTCATGCATATGCATGAGGA
On to B2, for which the binding result in the data set with Brn2 POU [4] is reported as “binds”.

B3: Octamer (dsDNA)
DNA 1: GGCGGCGGATGCAAATCGGCGGCGG
DNA 2: CCGCCGCCGATTTGCATCCGCCGCC
Regarding B3, the binding result with Brn2 POU [5] is “binds”; with Oct4 POU [6] it was “binds”; with Oct4 POUHD [7] it was “binds”; with Brn2 POUS linker, “no binding”; in the data set with Brn2 POUHD [8], “binds”.

B4: CpGpal fully methylated (dsDNA)
DNA 1: GCCGCCTTATGCGCATAAGCCGCCGC
DNA 2: GCGGCGGCTTATGCGCATAAGGCGGC
modifications: 5mC at the central CpG (ATG5mCGCAT), both strands
As to B4, the binding result in the data set with Oct4 POUHD [9], in the data set with Oct4 POU [10] and with Brn2 POUHD [3] (label: 5' Cy5 or FAM on forward strand) was “binds” throughout.

B5: CpGpal 5hmC (dsDNA)
DNA 1: GCCGCCTTATGCGCATAAGCCGCCGC
DNA 2: GCGGCGGCTTATGCGCATAAGGCGGC
modifications: 5hmC at the central CpG; strands carrying the mark not given
Consider B5, for which, in the data set with Oct4 POU [11], the binding result is reported as “binds”.

B6: MORE (dsDNA)
DNA 1: TCCTCATGCATATGCATGAGGA
DNA 2: TCCTCATGCATATGCATGAGGA
On to B6, for which, in the data set with Brn2 POU [12], the binding result is listed as “binds”.

The values above are taken from PMC9943670, “The homeodomain of Oct4 is a dimeric binder of methylated CpG elements”.
